According to PMC5818494, “Specific Recognition of Arginine Methylated Histone Tails by JMJD5 and JMJD7” (Scientific Reports, 2018):

Legend:
c-JMJD5 [1] = target: T1, c-JMJD5 (Homo sapiens, UniProt Q8N371); assay: Biacore surface plasmon resonance binding of c-JMJD5 to immobilised bulk histone or synthetic peptides; conditions: C-terminal biotin peptide on SA chip or bulk histone on CM5 chip, c-JMJD5 injected, room temperature
T1 construct: JMJD5 (residues 183–416, c-JMJD5) lacking the N-terminal domain; made in house
T1 sequence (Q8N371 183-416): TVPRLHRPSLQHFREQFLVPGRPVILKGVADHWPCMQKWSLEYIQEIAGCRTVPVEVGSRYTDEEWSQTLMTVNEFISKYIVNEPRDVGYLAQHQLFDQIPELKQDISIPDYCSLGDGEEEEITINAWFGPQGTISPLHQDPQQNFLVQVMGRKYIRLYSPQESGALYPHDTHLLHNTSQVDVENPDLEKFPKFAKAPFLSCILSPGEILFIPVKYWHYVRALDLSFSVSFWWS
Procedure: (§1) Data were integrated and scaled using the HKL2000 suite of programs.
(§2) 10 μg/ml calf bulk histone was dissolved in coating buffer (50 mM sodium acetate [pH 5.0]) and coated onto a CM5 chip (GE Healthcare). […] For peptides, 2 μg/ml synthetic peptide with C-terminal biotin was dissolved in PBS and coated onto a streptavidin coated SA chip (GE Healthcare). […] Similar procedures were carried out for JMJD5. All experiments are carried out at room temperature.

JMJD7 = target: T2, JMJD7 (Mus musculus, UniProt P0C872); assay: Biacore surface plasmon resonance binding of JMJD7 to immobilised bulk histone or synthetic peptides; conditions: C-terminal biotin peptide on SA chip or bulk histone on CM5 chip, JMJD7 injected, room temperature
T2 construct: The final model contains residues 1–316; GST (N, cleaved yes); made in house
T2 sequence (P0C872 whole entry, the tested form may be a part): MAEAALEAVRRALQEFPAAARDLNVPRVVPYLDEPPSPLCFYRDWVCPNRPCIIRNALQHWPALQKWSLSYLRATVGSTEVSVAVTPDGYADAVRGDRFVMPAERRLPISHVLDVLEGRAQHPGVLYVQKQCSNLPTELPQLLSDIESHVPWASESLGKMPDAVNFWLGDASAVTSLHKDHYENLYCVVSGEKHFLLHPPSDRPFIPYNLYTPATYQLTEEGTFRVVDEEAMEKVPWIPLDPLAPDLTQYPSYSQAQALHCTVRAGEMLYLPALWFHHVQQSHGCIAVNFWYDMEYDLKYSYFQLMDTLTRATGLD
Procedure: as §1, §2

c-JMJD5 [2] = target: T1, c-JMJD5; conditions: fluorescence polarization, c-JMJD5, previous report; read-out: binding affinity; cited from earlier work
Text: The binding affinities of various lysine binding domains, such as Chromodomains, PHD fingers, Tudor domains, etc., to lysine residues with and without methylation has been very well established. It is also true that the difference in binding affinity of Tudor domains to arginine with and without methylation is also marginal. The question here is whether c-JMJD5 or JMJD7 has different binding affinity depending on the methylation status of arginine. From the complex structure shown above, c-JMJD5 contains a binding pocket for methylarginine that is similar to those of Tudor domains (Fig ... || Clipping of histone tails, high turnover rates of histone in non-proliferating cells, arginine demethylation, and Pol II elongation control are highly contentious subjects in the transcription and epigenetic fields. Our previous novel discovery of clipping of arginine methylated histone tails by JMJD5 and JMJD7 sheds light on how these topics are intrinsically coupled. Data presented here not only reveal the underlying mechanism of novel enzymatic activities of JMJD5 and JMJD7, but also further corroborate our previous findings. Shortly after the release of our report, Shen et al. also repo ...

pH3: native form of H3 peptide (1–21)
binding in words (SPR sensorgram) (c-JMJD5 [1]): non-specific binding
binding in words (SPR sensorgram) (JMJD7): non-specific binding
Kd (c-JMJD5 [2]): ~7 µM
